Key:
human serum albumin [1] = molecular target: T1, human serum albumin (human, UniProt P02768 25-609); assay: SPR, albumin immobilized, HBSP pH 7.4
T1 construct: immobilized on chips or coated on plates elsewhere; also called HSA; HuSA

rhesus serum albumin [2] = molecular target: T2, rhesus serum albumin (rhesus, UniProt Q28522 17-600); assay: SPR, albumin immobilized, HBSP pH 7.4
T2 construct: also called RhSA; Rh-SA

mouse serum albumin [3] = molecular target: T3, mouse serum albumin (mouse, UniProt P07724 25-608); assay: SPR, albumin immobilized, HBSP pH 7.4
T3 construct: also called MSA; MuSA

mouse serum albumin [4] = molecular target: T3, mouse serum albumin; assay: SPR, albumin immobilized, acetate pH 7.4; acetate pH 7.4, MuSA
human serum albumin [5] = molecular target: T1, human serum albumin; assay: SPR, albumin immobilized, acetate pH 5.5
rhesus serum albumin [6] = molecular target: T2, rhesus serum albumin; assay: SPR, albumin immobilized, acetate pH 5.5
mouse serum albumin [7] = molecular target: T3, mouse serum albumin; assay: SPR, albumin immobilized, acetate pH 5.5
mouse serum albumin [8] = molecular target: T3, mouse serum albumin; assay: SPR, albumin immobilized, acetate pH 5.5; remark: listed apart in the source

T2 sequence (Q28522 17-600 limits assumed): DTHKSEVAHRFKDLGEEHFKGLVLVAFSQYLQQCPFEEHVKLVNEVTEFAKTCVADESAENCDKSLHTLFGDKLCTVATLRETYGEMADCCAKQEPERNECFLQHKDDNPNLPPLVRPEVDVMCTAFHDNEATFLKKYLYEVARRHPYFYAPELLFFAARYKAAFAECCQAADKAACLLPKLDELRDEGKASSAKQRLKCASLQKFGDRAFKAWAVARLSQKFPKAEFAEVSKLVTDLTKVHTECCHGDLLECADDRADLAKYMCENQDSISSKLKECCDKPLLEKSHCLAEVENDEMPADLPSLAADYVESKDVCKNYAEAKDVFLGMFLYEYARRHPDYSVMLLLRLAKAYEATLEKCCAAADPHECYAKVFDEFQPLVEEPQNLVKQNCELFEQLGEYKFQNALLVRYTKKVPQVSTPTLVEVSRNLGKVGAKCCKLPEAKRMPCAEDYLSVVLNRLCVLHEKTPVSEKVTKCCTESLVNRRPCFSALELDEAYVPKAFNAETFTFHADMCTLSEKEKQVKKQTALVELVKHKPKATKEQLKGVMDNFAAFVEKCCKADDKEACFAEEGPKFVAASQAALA
T3 sequence (P07724 25-608 limits assumed): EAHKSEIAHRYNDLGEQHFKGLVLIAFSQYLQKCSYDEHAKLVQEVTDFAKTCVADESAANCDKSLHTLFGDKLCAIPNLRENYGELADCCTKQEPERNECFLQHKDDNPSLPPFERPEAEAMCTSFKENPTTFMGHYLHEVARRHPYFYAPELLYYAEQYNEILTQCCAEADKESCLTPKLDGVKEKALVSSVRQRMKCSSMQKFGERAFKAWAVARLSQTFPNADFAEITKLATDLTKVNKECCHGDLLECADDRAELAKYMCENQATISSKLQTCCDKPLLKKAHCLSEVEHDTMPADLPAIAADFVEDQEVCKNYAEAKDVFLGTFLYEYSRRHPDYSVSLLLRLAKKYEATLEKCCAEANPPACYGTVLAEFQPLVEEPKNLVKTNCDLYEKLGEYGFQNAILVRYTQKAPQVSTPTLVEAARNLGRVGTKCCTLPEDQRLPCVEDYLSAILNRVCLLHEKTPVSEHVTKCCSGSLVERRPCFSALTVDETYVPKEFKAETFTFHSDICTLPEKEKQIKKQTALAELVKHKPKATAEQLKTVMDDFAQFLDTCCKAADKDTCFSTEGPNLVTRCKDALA

Kd (human serum albumin [1]): 10.7 nM
koff (human serum albumin [1]): 0.000192 s⁻¹
kon (human serum albumin [1]): 17900 M⁻¹ s⁻¹
Kd (rhesus serum albumin [2]): 11.4 nM
koff (rhesus serum albumin [2]): 0.000267 s⁻¹
kon (rhesus serum albumin [2]): 23500 M⁻¹ s⁻¹
Kd (mouse serum albumin [3]): 3.3 nM
koff (mouse serum albumin [3]): 0.000262 s⁻¹
kon (mouse serum albumin [3]): 79600 M⁻¹ s⁻¹
kon (mouse serum albumin [4]): ~76800 M⁻¹ s⁻¹
Kd (human serum albumin [5]): 4.1 nM
koff (human serum albumin [5]): 0.000287 s⁻¹
kon (human serum albumin [5]): 70700 M⁻¹ s⁻¹
Kd (rhesus serum albumin [6]): 11.2 nM
koff (rhesus serum albumin [6]): 0.000503 s⁻¹
kon (rhesus serum albumin [6]): 44900 M⁻¹ s⁻¹
Kd (mouse serum albumin [7]): 14.6 nM
koff (mouse serum albumin [7]): 0.00113 s⁻¹
kon (mouse serum albumin [7]): 77000 M⁻¹ s⁻¹
Kd (mouse serum albumin [8]): 14.9 nM
koff (mouse serum albumin [8]): 0.00125 s⁻¹
kon (mouse serum albumin [8]): 84000 M⁻¹ s⁻¹
B1: PKE2 Adnectin 2629_E06 (designed binder)
chain: MGVSDVPRDLEVVAATPTSLLISWDAPAVTVRYYRITYGREVQKYSDLGPLYIYQEFTVPGSKSTATISGLKPGVDYTITVYAVTGSGESPASSKPISINYRTEIDKPSQHHHHHH
notes: 10Fn3 domain with modified CD loop; the entry includes the His6 tail; also called ADX_2629_E06

Reference: patent publication US20200048328A1 (Bristol-Myers Squibb, published 2020)
